Assay results from paper PMC9604545.

Key:
[1] = target: human legumain, activated asparaginyl-specific endopeptidase (AEP) (human) (UniProt Q99538); assay: enzyme inhibition kinetics (Ki from initial velocities, Morrison equation); hCE-K75A at 1.5 nM to 1.6 µM mixed with 50 µM AAN-AMC in 20 mM citric acid pH 5.5, 50 mM NaCl, 0.05% Tween-20; reaction started with 2 nM legumain; 10 min at 37 °C
[2] = target: human legumain, activated asparaginyl-specific endopeptidase (AEP) (human) (UniProt Q99538); assay: SEC; legumain incubated with hCE-K75A at a 1:4 molar ratio in 50 mM citric acid pH 4.0, 100 mM NaCl for 1 h at 37 °C, till complete RCL hydrolysis; Superdex 75 or S200 10/300 GL in 20 mM citric acid pH 4.0, 50 mM NaCl; peak fractions analysed by SDS-PAGE

UniProt Q99538, sequence (Q99538 18-323): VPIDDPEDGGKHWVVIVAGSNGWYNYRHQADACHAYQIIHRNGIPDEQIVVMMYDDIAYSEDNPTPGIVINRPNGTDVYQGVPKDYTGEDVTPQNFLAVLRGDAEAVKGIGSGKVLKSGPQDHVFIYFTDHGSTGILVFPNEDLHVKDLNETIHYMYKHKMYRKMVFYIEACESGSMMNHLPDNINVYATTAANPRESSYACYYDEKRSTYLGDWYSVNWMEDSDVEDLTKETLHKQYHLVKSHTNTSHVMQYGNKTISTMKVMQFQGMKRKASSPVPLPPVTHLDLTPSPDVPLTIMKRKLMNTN

Row | Ki [1] [nM] | molar ratio of enzyme:inhibitor in the complex peak (enzyme:inhibitor) [2] | Substance
1 | 19.8 |  | human cystatin M/E-K75A mutant, intact (natural protein)
2 |  | 1 | human cystatin M/E-K75A mutant, cleaved by legumain after P1-Asn39 on the reactive center loop (complex)
